Measured values published in patent publication US20130330294A1, “Serum Amyloid A (SAA) Overrides Regulatory T Cells (TREG) Anergy” (The Board of Trustees of the Leland Stanford Junior …, priority 2010, published 2013).

Columns and labels:
SOCS3 in Treg = assay: SOCS3 expression in forskolin-treated Treg by intracellular staining; type: cell-based, human; conditions: after 24 hour stimulation
Protocol: To evaluate effects of plasma on suppression assays and immune cell cultures, frozen plasma samples were thawed at 25° C. and debris were removed with sterile 40 μm filters (BD Biosciences). All plasma samples were tested in duplicates or triplicates. To control for variations in suppressive and proliferative potentials of Treg and Teff, respectively, both HC and SJIA plasma samples were used in parallel suppression assays with the same set of purified cells for each round of experiments. In addition, fold change in 3H-thymidine cpm in assays with plasma compared to those in complete media alone, was computed to analyze the effects of plasma in suppression assays or stimulation assays. In CFSE assays, percentage of proliferating cells (shown by dye dilution) was used to analyze the effects of plasma on cell proliferation. IL-1Ra, neutralizing antibody against IL-6 and TNF-α (R&D System), and recombinant IL-1, IL-6 (Peprotech) were used to evaluate the roles of these cytokines in suppression assays. Recombinant SAA (Peprotech) was used at different concentrations in suppression assays in the presence of polymixin (5 μg/ml). […] To pharmacologically modulate SOCS3, isolated Treg were cultured with forskolin (Calbiochem) at different concentrations and analyzed for SOCS3 expression at different time points. […]

Treg and Teff [1] = assay: CFSE-based Treg suppression assay with APC; type: cell-based, human
Protocol: Carboxyfluorescein diacetate succinimidyl ester (CFSE) dilution assay was used for measuring T cell proliferation in suppression assays. Briefly, Treg were labeled with CFSE using Cell Tracer CFSE Cell Proliferation kit (Molecular Probes) at a final concentration of 10 μM, according to manufacturer's instructions. Assays with labeled cells were performed as described for 3H-thymidine-based suppression assays. After 7 days of culture, cells were harvested and dye dilution was analyzed by flow cytometry. Stimulation assays were set up similarly with allogeneic irradiated APC and only one type of CFSE-labeled T cells (either Treg or Teff). For APC fixation, these cells were first re-suspended in PBS+10% FBS+1% paraformaldehyde for […] at 37° C. Fixed cells were pelleted by centrifugation, washed and then cultured in complete media.
To evaluate effects of plasma on suppression assays and immune cell cultures, frozen plasma samples were thawed at 25° C. and debris were removed with sterile 40 μm filters (BD Biosciences). All plasma samples were tested in duplicates or triplicates. To control for variations in suppressive and proliferative potentials of Treg and Teff, respectively, both HC and SJIA plasma samples were used in parallel suppression assays with the same set of purified cells for each round of experiments. In addition, fold change in 3H-thymidine cpm in assays with plasma compared to those in complete media alone, was computed to analyze the effects of plasma in suppression assays or stimulation assays. In CFSE assays, percentage of proliferating cells (shown by dye dilution) was used to analyze the effects of plasma on cell proliferation. IL-1Ra, neutralizing antibody against IL-6 and TNF-α (R&D System), and recombinant IL-1, IL-6 (Peprotech) were used to evaluate the roles of these cytokines in suppression assays. […] To pharmacologically modulate SOCS3, isolated Treg were cultured with forskolin (Calbiochem) at different concentrations and analyzed for SOCS3 expression at different time points.

[2] = test system: pERK1/2, pAKT, pSTAT3 in Treg and Teff; assay: Phosphorylation of ERK1/2, AKT and STAT3 in Treg and Teff in suppression assays by FACS; type: cell-based, human; conditions: assays with SJIA plasma, day 4; IL-1 RA 1 μM, anti-IL-6 1 μg/ml
Protocol: (§1) Detection of surface markers and intracellular molecules was performed. Antibodies used in these experiments included anti-human RAGE, SOCS3 (Abcam), CD14-FITC, DR-FITC, Foxp3-FITC, Lin (mixture of CD3, CD14, CD16, CD19, CD56)-FITC, CD14-PE, CD25-PE, CD40-PE, CD83-PE, CD127-PE, HVEM-PE, PDL2-PE, IL-1-PE, IL-6-PE, CD3-PerCP, CD4-PerCP, CD19-PerCP, CD25-PerCP, DR-PerCP, Lin-PerCP, CD3-APC, CD4-APC, CD14-APC, CD36-APC, CD86-APC, TLR2-APC, TLR4-APC, PDL1-APC, CCR7-APC, IL-6-APC, Lin-APC (Biolegend), Ki-67 FITC, pSTAT3 Alexa-647, pAKT Alexa-647, pERK1/2 Alexa-647 (BD Biosciences), and FPRL-1-APC(R&D System). Antibodies to mouse proteins used in these experiments included anti-CD25-PE, CD4-PerCP, CD11b-PerCP, CD115-APC, and Foxp3-APC (Biolegend). For in vitro experiments, to assay for expression of different surface and intracellular molecules in a specific cell subset (Treg, Teff or APC) in mixed cell cultures, the relevant subset was labeled with CFSE prior to suppression assays. Cells were pelleted at various time points and underwent standard staining protocols of the manufacturers. For in vivo experiments, cells were harvested from the peritoneal cavity and underwent flow cytometric analysis.

Treg and Teff [3] = assay: Suppression assay without APC (anti-CD3 and anti-CD28 as T cell stimuli); type: cell-based, human; conditions: recombinant SAA 25 μg/ml
Protocol: Standard 3H-thymidine-based suppression assays were performed to analyze Treg function. Autologous Treg and Teff were cultured at 3,750 cells per 50 μl per well in complete media (RPMI+10% FBS+1% L-glutamine) with allogeneic irradiated CD3-depleted peripheral blood mononuclear cells (antigen presenting cells or APC), at 37,500 cells per 50 μl per well. Anti-CD3 antibodies (clone UCHT1, BD Biosciences) were pre-coated on U-bottom 96 well plates at 5 μg/ml for 4 hours at 37° C. before suppression assays. Additional media was added so the final volume in each well was 200 μl. On day 6, cells were pulsed with 1 μCi 3H-thymidine (25 μl) per well and harvested on day 7 with a Tomtec cell harvester. 3H-thymidine incorporation was determined using a 1450 microbeta Wallac Trilux liquid scintillation counter. […] Stimulation assays were set up similarly with allogeneic irradiated APC and only one type of T cell (either Treg or Teff). All assays were performed in triplicates. For suppression assays without APC, anti-CD3 antibodies at 5 μg/ml final concentration (clone UCHT1, BD Biosciences) were plate-bound in U-bottom 96-well plates for 4 hours at 37° C. Soluble anti-CD28 (5 μg/ml, BD Biosciences) was added, followed by Teff (40,000 cells per 50 μl per well) and Treg (40,000 cells per 50 μl per well). […]

peritoneal Treg and Teff = assay: In vivo effects of SAA on Treg frequency and proliferation (intraperitoneal injection); set-up: species or system C57B6 mice; conditions: 16 hours
Protocol: as §1, with “C57B6 mice (male, 8 to 10 weeks old) were purchased from Jackson Laboratory. Mice were injected intraperitoneally with recombinant human SAA (Peprotech, 30 μg in 100 μl PBS), purified human serum albumin (Sigma Aldrich, 30 μg in 100 μl PBS), or endotoxin (Sigma Aldrich, 0.25 ng in 100 μl PBS). Animals were sacrificed 16 hours later; peritoneal cells were harvested and stained for surface and intracellular markers to detect Treg frequency and proliferation. In vivo depletion of monocytes was performed with clodronate liposomes (Encapsula). In these experiments, 400 μl of clodronate or empty liposomes were injected intraperitoneally 24 hours before SAA injection. Detection” for “Detection”, “[…],” for “CD127-PE, HVEM-PE, PDL2-PE, IL-1-PE, IL-6-PE,”

[4] = test system: APC, monocytes and B cells; assay: Secreted and intracellular cytokines in suppression assays, APC, monocyte and B cell cultures; type: cell-based, human; conditions: 25 μg/ml, polymixin 5 μg/ml, 24 hours
Protocol: Both suppression assays and APC cultures were set up for supernatant collection. For APC cultures, 50 μl of APC stock solution (750,000 cells per ml) were incubated in a final volume of 200 μl per well in complete media. Plasma samples were used at 35 μl per well. At different time points, supernatants were collected after centrifugation to pellet cells; supernatants representing samples from the same experimental conditions were pooled from 6 wells of 96-well plates and stored at −80° C. until analysis. To detect cytokines in the supernatants, cytometric bead arrays (BD Biosciences) and ELISA (R&D System) were used according to manufacturers' protocols. Similar assays were performed for plasma samples from HC and SJIA subjects.
Detection of surface markers and intracellular molecules was performed. Antibodies used in these experiments included anti-human RAGE, SOCS3 (Abcam), CD14-FITC, DR-FITC, Foxp3-FITC, Lin (mixture of CD3, CD14, CD16, CD19, CD56)-FITC, CD14-PE, CD25-PE, CD40-PE, CD83-PE, CD127-PE, HVEM-PE, PDL2-PE, IL-1-PE, IL-6-PE, CD3-PerCP, CD4-PerCP, CD19-PerCP, CD25-PerCP, DR-PerCP, Lin-PerCP, CD3-APC, CD4-APC, CD14-APC, CD36-APC, CD86-APC, TLR2-APC, TLR4-APC, PDL1-APC, CCR7-APC, IL-6-APC, Lin-APC (Biolegend), Ki-67 FITC, pSTAT3 Alexa-647, pAKT Alexa-647, pERK1/2 Alexa-647 (BD Biosciences), and FPRL-1-APC(R&D System). […]

[5] = in the presence of polymixin (5 μg/ml)

## C=C[C@@]1(C)CC(=O)[C@]2(O)[C@@]3(C)[C@@H](O)CCC(C)(C)[C@@H]3[C@H](O)[C@H](OC(C)=O)[C@@]2(C)O1 [forskolin]
SOCS3 in Treg
  optimal dosing for SOCS3 induction in Treg: 100 µM

## IL-1Ra: IL-1 receptor antagonist (R&D System)
Treg and Teff [1]; suppression assays with SJIA plasma, various concentrations, IL-1 Ra 1 μM, antibodies 1 μg/ml
  inhibition of SJIA plasma-induced Treg proliferation: significant inhibition
[2]
  phosphorylated ERK1/2 in Treg with blocking reagent: abrogated the increased expression
  phosphorylation of AKT in Treg with blocking reagent: inhibited phosphorylation of AKT

B1: recombinant human SAA (protein, UniProt P0DJI8 19-122, looked up)
Serum amyloid A-1 protein: RSFFSFLGEAFDGARDMWRAYSDMREANYIGSDKYFHARGNYDAAKRGPGGAWAAEVITDARENIQRFFGHGAEDSLADQAANEWGRSGKDPNHFRPAGLPEKY
Treg and Teff [1]; [5]
  Treg proliferation in suppression assays: selectively enhance proliferation of Treg
  Treg suppressive activity: without reducing their suppressive activity
Treg and Teff [3]
  Treg proliferation in the absence of APC: failed to induce Treg proliferation
Peritoneal Treg and Teff; 30 μg i.p. in 100 μl PBS, vs human serum albumin or endotoxin
  Treg abundance in the peritoneal cavity: significant increase in Treg abundance
Peritoneal Treg and Teff; 30 μg i.p.
  Teff proliferation in vivo: did not enhance Teff proliferation
Peritoneal Treg and Teff; 30 μg i.p., vs controls
  percentage of peritoneal Treg expressing Ki-67: significantly higher percentage
[4]
  IL-1 production by monocytes compared with B cells: significantly higher levels
  IL-6 production by monocytes compared with B cells: significantly higher levels
